Data: patent publication US20230122364A1 (VANDERBILT UNIVERSITY, published 2023)
Numbering of substitutions follows the chain as printed.

B1: COV2-2068 (antibody, V domains shown)
VH: EVQLVESGGGLVQPGGSLRLSCAASGFTVSSNYMSWVRQAPGKGLEWVSVIYPGGSAFYADSVKGRFTISRHNSNNTLCLQMNSLRTEDTAVYYCARSYDILTGYRDAFDIWGQGTMVTVSS
VL: QSVLTQPPSVSGAPGQRVTISCTGSSSNIGSGSDVHWYQQLPGTAPKLLIYGNTNRPSGVPDRFSGSKSGTSASLAITGLQAEDEADYYCQSYDSRLSGFVVFGGGTKLTVL
B2: COV2-2082 (antibody, V domains shown)
VH: EVQLVESGGGVVRPGGSLRLSCAASGFIFDDYDMTWVRQAPGKGLEWVSGISWNGGNTGYADSVKGRFTISRDNAKNSLYLQMNSLRAEDTALYHCAVIMSPIPRYSGYDWAGGAFDIWGQGTMVTVSS
VL: SSELTQDPAVSVALGQTVRITCQGDSLRSYYASWYQQKPGQVPILVIYDKNNRPSGIPDRFSGSSSGNTASLTITGAQAEDEADYYCNSRDSSGNAVVFGGGTKLTVL
B3: COV2-2050 (antibody, V domains shown)
VH: QVQLVQSGAEVKKPGASVKVSCKASGYTFTDYYMHWVRQAPGQGLEWMGWINPNSRGTNYAQKFQGRVTMTRDTSISTVYMELSRLTSDDTAVYYCARVVVLGYGRPNNYYDGRNVWDYWGQGTLVTVSS
VL: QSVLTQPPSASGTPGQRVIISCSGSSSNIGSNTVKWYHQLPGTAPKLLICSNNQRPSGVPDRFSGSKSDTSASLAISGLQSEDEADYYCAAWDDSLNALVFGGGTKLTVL
B4: COV2-2098 (antibody, V domains shown)
VH: EVQLLESGGGLIQPGGSLRLSCAASGFTFSNYAMSWVRQAPGKGLEWVSGIISTSGGATYNADSVRGRFTTSRDNSKNILYLQMNSLRGEDTAVYYCVKGLFDWFPLWGQGTMVTVSS
VL: DIVMTQSPATLSVSPGERAILSCRASQSVRSNLAWYQQKPGQAPRLLISGASTRATAIPARFSGSGSGTEFTLTITSLQSEDCAVYYCHQYNNWPQTFGQGTKVEIK
B5: COV2-2113 (antibody, V domains shown)
VH: EVQLVESGGGLIQPGGSLRLSCAASEVTVSSNYMSWVRQAPGKGLEWVSLIYSGGTTYYADSVKGRFTISRDNSKNTLYLQMNSLRAEDTAVYYCARDFLRWHDLWGQGTLVTVSS
VL: DIQMTQSPSSLSASVGDRVTITCQASQDINNYLNWYQQKPGKAPKLLIYDASNLETGVPLRFSGSGSGTDFIFTISSLQPEDIATYYCQQYDNLPPVFGGGTKVEIK
B6: COV2-2103 (antibody, V domains shown)
VH: EVQLVESGGGLVQPGGSLRLSCAASGFTFSRHWMTWVRQAPGKGLEWVANIKQDGSEKYYVDSVKGRLTISRDNAKNSLYLQMNSLRAEDTAVYYCARLGFYYGGADYWGQGTLVTVSS
VL: NFMLTQPHSVSESPGKTVTISCTGSSGSIASNYVQWYQQRPGSAPTTVISEDNQRPSGVPDRFSGSIDSSSNSASLTISGLKTEDEADYYCQSYDGINRAWVFGGGTKLTVL
B7: COV2-2132 (antibody, V domains shown)
VH: B5 VH
VL: B5 VL with I72T
B8: COV2-2046 (antibody, V domains shown)
VH: EVQLVESGGGLVQPGRSLRLSCAASGFTFDDYAMHWVRQAPGKGLEWVSGISWNSGSIAYTDSVKGRFTISRDNAKNSLYLQMNSLRAEDTALYYCAKAHSTGHQYYYGMDVWGQGTTVTVSS
VL: DIQMTQSPSSLSASVGDRVTITCRASQSISSFLNWYQQKPGKAPKLLIYAAFNLQSGVPSRFSGSGSGTDFTLTISSLQSEDFATYYCQQSYNTPYTFGQGTKLEIK
B9: COV2-2961 (antibody, V domains shown)
VH: EVQLVQSGPEVKKPGTSVKVSCKASGFTFMSSAVQWVRQARGQRLEWIGWIVIGSGNTNYAQKFQERVTITRDMSTSTAYMELSSLRSEDTAVYYCAAPYCSSISCNDGFDIWGQGTMVTVSS
VL: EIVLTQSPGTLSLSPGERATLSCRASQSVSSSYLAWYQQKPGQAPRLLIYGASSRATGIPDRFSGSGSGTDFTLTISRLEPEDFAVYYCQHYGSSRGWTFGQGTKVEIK

These binders were tested against T1, prefusion conformation-stabilized SARS-CoV-2 spike ectodomain (S2Pecto) protein (SARS-CoV-2, UniProt P0DTC2 14-1213; P10104 458-484) (assay: ELISA on coated S2Pecto).

Binder	EC50
B1	0.0074 µg/mL
B2	0.0011 µg/mL
B3	0.0017 µg/mL
B4	0.0013 µg/mL
B5	0.0018 µg/mL
B6	0.0029 µg/mL

The binders below were run against T1, prefusion conformation-stabilized … (assay: ELISA, purified IgG).

Binder	OD 450 nm
B1	4.3 OD 450 nm
B2	4.3 OD 450 nm
B3	4.3 OD 450 nm
B4	4.3 OD 450 nm
B5	4.4 OD 450 nm
B7	4.4 OD 450 nm
B6	4.3 OD 450 nm
B8	4.3 OD 450 nm
B9	3.6 OD 450 nm

The binders below were run against T1, prefusion conformation-stabilized … (assay: competition ELISA on coated S2Pecto; hACE2-FLAG binding inhibited).

Binder	IC50
B1	0.166 µg/mL
B2	0.043 µg/mL
B3	0.063 µg/mL
B4	0.048 µg/mL
B5	0.06 µg/mL
B6	0.079 µg/mL
